Laboratory results from publication PMC9116965 (iScience, 2022).

B1: STS165 (full-length IgG form) (antibody, V domains shown)
VH: EVQLVESGGGVVRPGGSLRLSCAASGFTFDDYGMSWVRQAPGKGLEWVSGINWNGGSTGYADSVKGRFTISRDNAKNSLYLQMNSLRAEDTALYHCARVGYCGGDCYSLSLAGFPDYWGQGTLVTVSS
VL: not shown
B2: STS165 Fab form (Fab, V domains shown)
VH: B1 VH
VL: not shown
B3: S2A4 (antibody, V domains shown)
VH: EVQLVESGGGLVQPGGSLRLSCAASGFTFSSYWMNWVRQAPGKGLEWVANIKQDGSEKYYVDSVKGRFTISRDNAKNSLFLQMNSLRAEDTAVYYCARVWWLRGSFDYWGQGTLVTVSS
VL: NFMLTQPHSVSESPGKTVTISCTGSSGSIASNYVQWYQQRPGSAPTTVIYEDNQRPSGVPDRFSGSIDSSSNSASLTISGLKTEDEADYYCQSYDSSNHVVFGGGTKLTVL
B4: H014 (antibody, V domains shown)
VH: EVQLVQSGAEVKKPGATVKISCKVSGYSFSNYYIHWVKQAPGKSLEWIGYIDPFNGGTSDNLKFKGAATLTADTSTDTAYMELSSLRSEDTAVYYCARSEYDPYYVMDYWGQGTTVTVSS
VL: IVLTQSPFQSVSPKEKVTITCRASQSISSNLHWYQQKPDQSPKLLIKYASQSISGIPSRFSGSGSGTDFTLTINSLEAEDFGIYFCQQTNFWPYIFGQGTKLEIL
B5: EY6A (antibody, V domains shown)
VH: EVQLVESGGGVVQPGRSLRLSCAASAFTFSSYDMHWVRQAPGKGLEWVAVISYDGSNKYYADSVKGRFTISRDNSKNTLYLQMNSLRAEDTAVYYCAKDGGKLWVYYFDYWGQGTLVTVSS
VL: not shown

Experiments:
SARS-CoV RBD protein = SARS-CoV RBD protein (Severe acute respiratory syndrome …, UniProt P59594); assay: cell-based or functional assay
[1] = target: T1, SARS-CoV-2 WT RBD protein (SARS-CoV-2 (WT), UniProt P0DTC2); assay: SPR
[2] = target: T1, SARS-CoV-2 WT RBD protein; assay: ELISA

Row | Binder | binding result [2] | further results
1 | B1 | – | pseudovirus neutralisation of SARS-CoV, IC50 (HEK-293T-hACE2 cells, luciferase) (SARS-CoV RBD protein): 2.09 µg/mL
2 | B2 | – | fold decrease of binding affinity against the IgG form [1]: > 50 fold
3 | B3 | binds | –
4 | B4 | binds | –
5 | B5 | binds | –
